Test results from patent EP4342487A2, “PHARMACEUTICAL COMPOSITION COMPRISING GIP DERIVATIVE OR LONG-ACTING CONJUGATE THEREOF FOR PREVENTING OR TREATING PULMONARY DISEASE” (Hanmi Pharm. Co., Ltd., priority 2021, dated 2022).
Where no end group is shown, it is not given here. [ ]: non-standard residue; d: D form. Aib = CC(C)(N)C(=O)O

T1: human GIP receptor (human, UniProt P48546 22-466)
T1 sequence (looked up): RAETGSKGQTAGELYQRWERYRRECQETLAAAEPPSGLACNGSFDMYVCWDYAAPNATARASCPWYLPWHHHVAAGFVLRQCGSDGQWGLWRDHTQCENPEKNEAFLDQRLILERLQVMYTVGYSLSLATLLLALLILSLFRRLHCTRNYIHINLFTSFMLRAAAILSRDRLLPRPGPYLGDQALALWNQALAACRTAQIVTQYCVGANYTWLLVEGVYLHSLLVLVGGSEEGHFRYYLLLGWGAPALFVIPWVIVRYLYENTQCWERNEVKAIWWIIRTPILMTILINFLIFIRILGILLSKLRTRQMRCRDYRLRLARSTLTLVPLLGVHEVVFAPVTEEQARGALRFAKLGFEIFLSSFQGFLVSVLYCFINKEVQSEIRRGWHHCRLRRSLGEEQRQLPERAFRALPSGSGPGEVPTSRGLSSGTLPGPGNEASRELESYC

B1: GIP derivative of SEQ ID NO: 11 (peptide)
peptide: Y[Aib]EGTFISDYSIAMDAIAQQDFVNWLLAQKGKKNDWKHNITQC
modifications: not fully specified; printed as YAibEGT FISDYSIAMDAIAQQDFVNWLLAQKGKKNDWKHNITQC

What follows are binders tested against T1, human GIP receptor (assay: cell-based or functional assay).
With Y[Aib]EGTFISDYSI[Aib]LDKQAA[Aib]EFVNWLL[Aib]GHPSSGAPPPSC (not fully specified) [GIP derivative of SEQ ID NO: 24] the “In vitro activity (%) of GIP derivatives compared to human native GIP in human GIP receptors (EC50 from accumulated cAMP, CHO cells expressing the human GIP receptor)” value (“In vitro activity (%) of GIP derivatives” for short) was 183%.
With Y[Aib]EGTFISDYSIAMDKIAQQDFVNWLLAQKPSSGAPPPSC (not fully specified) [GIP derivative of SEQ ID NO: 15] the “In vitro activity (%) of GIP derivatives” value was 31.1%.
For Y[Aib]EGTFISDYSIYLDKQAQKEFVNWLL[Aib]GGPSSGAPPPSC (not fully specified) [GIP derivative of SEQ ID NO: 23], the “In vitro activity (%) of GIP derivatives” value was 87.6%.
For Y[Aib]EGTFISDYSIYLDAQAA[Aib]EFVNWLLAQKC (not fully specified) [GIP derivative of SEQ ID NO: 14], the “In vitro activity (%) of GIP derivatives” value was 17.4%.
For Y[Aib]EGTFISDYSIYLDAQAAKDFVNWLLAGGPSSGAPPPSC (not fully specified) [GIP derivative of SEQ ID NO: 9], the “In vitro activity (%) of GIP derivatives” value was 2%.
For Y[Aib]EGTFISDYSIAMDAIAQQDFVNWLLAQKPSSGAPPPSC (not fully specified) [GIP derivative of SEQ ID NO: 1], the “In vitro activity (%) of GIP derivatives” value was 49.3%.
Y[Aib]EGTFISDYSIYLDKQAA[Aib]EFVNWLL[Aib]GHPSSGAPPPSC (not fully specified) [GIP derivative of SEQ ID NO: 19] was tested, and the “In vitro activity (%) of GIP derivatives” value was 66.7%.
With Y[Aib]EGTFISDYSIAMDGIAQQDFVNWLLAQKPSSGAPPPSC (not fully specified) [GIP derivative of SEQ ID NO: 16] the “In vitro activity (%) of GIP derivatives” value was 11.3%.
For Y[Aib]EGTFISDYSIAMDAIAQQDFVNWLLAGGPSSGAPPPSC (not fully specified) [GIP derivative of SEQ ID NO: 2], the “In vitro activity (%) of GIP derivatives” value was 13.9%.
For Y[Aib]EGTFISDYSIYLDAQAAKEFIAWLLAGGPSSGAPPPSC (not fully specified) [GIP derivative of SEQ ID NO: 10], the “In vitro activity (%) of GIP derivatives” value was 13.9%.
With Y[Aib]EGTFISDYSIYLDKQAA[Aib]EFVNWLLAQKC (not fully specified) [GIP derivative of SEQ ID NO: 13] the “In vitro activity (%) of GIP derivatives” value was 31.1%.
With Y[Aib]EGTFISDYSIYLDAQAA[Aib]DFVNWLLAGGPSSGAPPPSC (not fully specified) [GIP derivative of SEQ ID NO: 8] the “In vitro activity (%) of GIP derivatives” value was 1.9%.
With Y[Aib]EGTFISDYSI[Aib]LDKQAA[Aib]EFVNWLL[Aib]GGPSSGAPPPSC (not fully specified) [GIP derivative of SEQ ID NO: 21] the “In vitro activity (%) of GIP derivatives” value was 123%.
In the case of B1, the “In vitro activity (%) of GIP derivatives” value is reported as 122%.
In the case of Y[Aib]EGTFISDYSIYLDAQAQQDFVNWLLAGGPSSGAPPPSC (not fully specified) [GIP derivative of SEQ ID NO: 7], the “In vitro activity (%) of GIP derivatives” value is reported as 19.6%.
With Y[Aib]EGTFISDYSI[Aib]MDAIAQQDFVNWLLAGGPSSGAPPPSC (not fully specified) [GIP derivative of SEQ ID NO: 3] the “In vitro activity (%) of GIP derivatives” value was 15.6%.
In the case of Y[Aib]EGTFISDYSIYLDAIAQQDFVNWLLAGGPSSGAPPPSC (not fully specified) [GIP derivative of SEQ ID NO: 6], the “In vitro activity (%) of GIP derivatives” value is reported as 17.4%.
In the case of Y[Aib]EGTFISDYSIYLDKQAA[Aib]EFVQWLI[Aib]GGPSSGAPPPSC (not fully specified) [GIP derivative of SEQ ID NO: 25], the “In vitro activity (%) of GIP derivatives” value is reported as 78.3%.
With Y[Aib]EGTFISDYSIYLDKQAAQEFVNWLLAQKPSSGAPPPSC (not fully specified) [GIP derivative of SEQ ID NO: 18] the “In vitro activity (%) of GIP derivatives” value was 13.6%.
In the case of Y[Aib]EGTFISDYSIYLDKQAA[Aib]EFVNWLL[Aib]GGPSSGAPPPSC (not fully specified) [GIP derivative of SEQ ID NO: 20], the “In vitro activity (%) of GIP derivatives” value is reported as 75.3%.
In the case of Y[Aib]EGTFISDYSIYMDAIAQQDFVNWLLAGGPSSGAPPPSC (not fully specified) [GIP derivative of SEQ ID NO: 4], the “In vitro activity (%) of GIP derivatives” value is reported as 10.5%.
In the case of Y[Aib]EGTFISDYSIQMDAIAQQDFVNWLLAGGPSSGAPPPSC (not fully specified) [GIP derivative of SEQ ID NO: 5], the “In vitro activity (%) of GIP derivatives” value is reported as 12.1%.
With Y[Aib]EGTFISDYSIYLDKQAA[Aib]EFVQWLIAGHPSSGAPPPC (not fully specified) [GIP derivative of SEQ ID NO: 26] the “In vitro activity (%) of GIP derivatives” value was 66.7%.
With Y[Aib]EGTFISDYSIYLDKQAA[Aib]EFVNWLLAGHPSSGAPPPSC (not fully specified) [GIP derivative of SEQ ID NO: 22] the “In vitro activity (%) of GIP derivatives” value was 71.6%.
Y[Aib]EGTFISDYSIALEKQAQQDFVNWLLAGGPSSGAPPPSC (not fully specified) [GIP derivative of SEQ ID NO: 17] was tested, and the “In vitro activity (%) of GIP derivatives” value was 111%.
